Laboratory results published in patent publication US20140087995A1 (published 2014).
Each block holds one binder with its values, some of them ahead of it. Numbered stars: 1 amine (or outer) side, 2 acyl side, 3 side chain; on linkers, the order of the positions; unused ones are H or OH. Bridge positions count the residues as written; N and C are the ends. Side chains are listed from the residue outwards. Ends that are not written are not given here. * marks the point of attachment. C20 diacid = O=C(O)CCCCCCCCCCCCCCCCCCC(=O)*; γGlu = O=C(O)[C@H](CCC(=O)[*:2])N[*:1]

Assays:
rat calcitonin receptor [1] = biological target: T1, rat calcitonin receptor (rat, UniProt P32214 25-516); assay: ratio of IC50 on rat calcitonin receptor to IC50 on rat amylin receptor (reference m40)
T1 construct: whole, on cells; Membranes of transiently transfected BHK tk'ts 13 cells; also called rCTR; rat calcitonin (a) receptor
T1 sequence (looked up): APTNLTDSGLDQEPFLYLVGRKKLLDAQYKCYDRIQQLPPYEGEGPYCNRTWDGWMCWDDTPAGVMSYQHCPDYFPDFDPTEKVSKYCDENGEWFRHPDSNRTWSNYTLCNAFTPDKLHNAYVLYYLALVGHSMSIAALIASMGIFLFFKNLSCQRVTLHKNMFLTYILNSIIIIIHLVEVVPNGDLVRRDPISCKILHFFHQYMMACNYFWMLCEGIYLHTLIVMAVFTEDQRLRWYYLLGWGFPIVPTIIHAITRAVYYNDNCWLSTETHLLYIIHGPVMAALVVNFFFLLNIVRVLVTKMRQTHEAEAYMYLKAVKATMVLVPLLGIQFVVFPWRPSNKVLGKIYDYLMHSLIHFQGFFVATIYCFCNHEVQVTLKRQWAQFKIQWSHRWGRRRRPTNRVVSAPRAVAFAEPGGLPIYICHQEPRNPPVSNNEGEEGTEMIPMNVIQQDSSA

[2] = biological target: T2, rat amylin receptor (rat calcitonin receptor + rat RAMP 3) (rat, UniProt P32214 25-516; Q9JJ73 23-147); assay: SPA competition with 125I-rat amylin on membranes of BHK tk'ts 13 cells with rat calcitonin receptor + rat RAMP3 (Assay VI)
T2 construct: whole, on cells; Membranes of transiently transfected BHK tk'ts 13 cells; also called rAmylin-R; rat amylin 3(a) receptor
T2 sequence (looked up) 1: T1 sequence (looked up)
T2 sequence (looked up) 2: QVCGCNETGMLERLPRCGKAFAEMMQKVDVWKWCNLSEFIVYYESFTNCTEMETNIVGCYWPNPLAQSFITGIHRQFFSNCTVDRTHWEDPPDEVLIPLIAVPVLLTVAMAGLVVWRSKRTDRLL

rat calcitonin receptor [3] = biological target: T1, rat calcitonin receptor; assay: SPA competition with 125I-calcitonin on membranes of BHK tk'ts 13 cells with rat calcitonin receptor (Assay VIII)
[4] = biological target: T3, human calcitonin receptor (human, UniProt P30988 25-474); assay: ratio of IC50 on human calcitonin receptor to IC50 on human amylin receptor (reference m42), SPA competition
T3 construct: whole, on cells; Membranes of stably transfected cells; also called hCTR; hCT
T3 sequence (looked up): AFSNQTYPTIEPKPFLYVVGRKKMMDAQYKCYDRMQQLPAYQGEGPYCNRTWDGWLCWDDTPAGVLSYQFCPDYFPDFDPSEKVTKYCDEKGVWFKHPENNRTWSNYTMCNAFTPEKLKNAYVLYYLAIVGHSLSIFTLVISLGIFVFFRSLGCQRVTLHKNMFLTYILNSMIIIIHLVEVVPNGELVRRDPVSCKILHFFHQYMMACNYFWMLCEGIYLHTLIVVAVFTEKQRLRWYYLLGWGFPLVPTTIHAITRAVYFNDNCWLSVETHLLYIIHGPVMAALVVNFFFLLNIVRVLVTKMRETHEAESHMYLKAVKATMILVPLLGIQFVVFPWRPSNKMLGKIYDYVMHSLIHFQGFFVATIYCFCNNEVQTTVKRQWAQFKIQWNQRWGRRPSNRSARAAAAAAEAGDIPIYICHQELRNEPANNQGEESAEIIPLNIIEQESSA
How it was run: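 Competition binding by SPA uses membrane preparations (35 ng/μL final) in pH 7.4 Hepes buffer with 1 mM CaCl2 and 5 mM MgCl₂. Incubation lasts 120 min at 25° C, and IC₅₀ comes from one-site fitting.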

- Ratio rCT/rAmylin binding (rat calcitonin receptor [1]): 81.1
- IC50 [2]: 1.06 nM
- IC50 (rat calcitonin receptor [3]): 86.1 nM
- Ratio hCT/hAmylin binding [4]: 28.5
B1: N^ε1-[(4S)-4-carboxy-4-(19-carboxynonadecanoylamino)butanoyl]-[Glu14,Arg17,Pro21,Pro27,Arg34,Glu35]-h-amylin (peptide)
peptide: K([γGlu-C20 diacid])CNTATCATQRLAEFLRHSSPNFGAIPSSTNVGRETY-NH2
modifications: disulfide 2-7; N-terminus assumed
SMILES: CC[C@H](C)[C@H](NC(=O)[C@H](C)NC(=O)CNC(=O)[C@H](Cc1ccccc1)NC(=O)[C@H](CC(N)=O)NC(=O)[C@@H]1CCCN1C(=O)[C@H](CO)NC(=O)[C@H](CO)NC(=O)[C@H](Cc1c[nH]cn1)NC(=O)[C@H](CCCNC(=N)N)NC(=O)[C@H](CC(C)C)NC(=O)[C@H](Cc1ccccc1)NC(=O)[C@H](CCC(=O)O)NC(=O)[C@H](C)NC(=O)[C@H](CC(C)C)NC(=O)[C@H](CCCNC(=N)N)NC(=O)[C@H](CCC(N)=O)NC(=O)[C@@H](NC(=O)[C@H](C)NC(=O)[C@@H]1CSSC[C@H](NC(=O)[C@@H](N)CCCCNC(=O)CC[C@H](NC(=O)CCCCCCCCCCCCCCCCCCC(=O)O)C(=O)O)C(=O)N[C@@H](CC(N)=O)C(=O)N[C@@H]([C@@H](C)O)C(=O)N[C@@H](C)C(=O)N[C@@H]([C@@H](C)O)C(=O)N1)[C@@H](C)O)C(=O)N1CCC[C@H]1C(=O)N[C@@H](CO)C(=O)N[C@@H](CO)C(=O)N[C@H](C(=O)N[C@@H](CC(N)=O)C(=O)N[C@H](C(=O)NCC(=O)N[C@@H](CCCNC(=N)N)C(=O)N[C@@H](CCC(=O)O)C(=O)N[C@H](C(=O)N[C@@H](Cc1ccc(O)cc1)C(N)=O)[C@@H](C)O)C(C)C)[C@@H](C)O
notes: Synthetic acylated analogue of human amylin

- Ratio rCT/rAmylin binding (rat calcitonin receptor [1]): 34.6
- IC50 [2]: 0.958 nM
- IC50 (rat calcitonin receptor [3]): 33.1 nM
- Ratio hCT/hAmylin binding [4]: 11.1
B2: N^ε1-[(4S)-4-carboxy-4-(19-carboxynonadecanoylamino)butanoyl]-[Glu14,Arg17,Pro21,Pro27,His34,Glu35]-h-amylin (peptide)
peptide: K([γGlu-C20 diacid])CNTATCATQRLAEFLRHSSPNFGAIPSSTNVGHETY-NH2
modifications: disulfide 2-7; N-terminus assumed
SMILES: CC[C@H](C)[C@H](NC(=O)[C@H](C)NC(=O)CNC(=O)[C@H](Cc1ccccc1)NC(=O)[C@H](CC(N)=O)NC(=O)[C@@H]1CCCN1C(=O)[C@H](CO)NC(=O)[C@H](CO)NC(=O)[C@H](Cc1c[nH]cn1)NC(=O)[C@H](CCCNC(=N)N)NC(=O)[C@H](CC(C)C)NC(=O)[C@H](Cc1ccccc1)NC(=O)[C@H](CCC(=O)O)NC(=O)[C@H](C)NC(=O)[C@H](CC(C)C)NC(=O)[C@H](CCCNC(=N)N)NC(=O)[C@H](CCC(N)=O)NC(=O)[C@@H](NC(=O)[C@H](C)NC(=O)[C@@H]1CSSC[C@H](NC(=O)[C@@H](N)CCCCNC(=O)CC[C@H](NC(=O)CCCCCCCCCCCCCCCCCCC(=O)O)C(=O)O)C(=O)N[C@@H](CC(N)=O)C(=O)N[C@@H]([C@@H](C)O)C(=O)N[C@@H](C)C(=O)N[C@@H]([C@@H](C)O)C(=O)N1)[C@@H](C)O)C(=O)N1CCC[C@H]1C(=O)N[C@@H](CO)C(=O)N[C@@H](CO)C(=O)N[C@H](C(=O)N[C@@H](CC(N)=O)C(=O)N[C@H](C(=O)NCC(=O)N[C@@H](Cc1c[nH]cn1)C(=O)N[C@@H](CCC(=O)O)C(=O)N[C@H](C(=O)N[C@@H](Cc1ccc(O)cc1)C(N)=O)[C@@H](C)O)C(C)C)[C@@H](C)O
notes: Synthetic acylated analogue of human amylin; also called compound 107
